# From PMC3598077 (EMBO Molecular Medicine, 2013)
# Molecular target: T1, Recombinant His-RAD51 fusion protein (UniProt Q06609 1-339)
# T1 sequence: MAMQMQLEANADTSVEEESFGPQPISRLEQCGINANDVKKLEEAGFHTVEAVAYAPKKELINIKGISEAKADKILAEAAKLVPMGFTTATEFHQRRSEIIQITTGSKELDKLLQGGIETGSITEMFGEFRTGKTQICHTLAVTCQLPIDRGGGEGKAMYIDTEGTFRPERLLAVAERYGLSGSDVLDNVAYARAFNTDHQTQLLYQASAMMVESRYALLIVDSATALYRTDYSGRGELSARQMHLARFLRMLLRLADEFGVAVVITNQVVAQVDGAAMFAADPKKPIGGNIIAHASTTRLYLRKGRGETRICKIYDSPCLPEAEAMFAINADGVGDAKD
# Assay: SPR
binder,measurement,value
"FGGSFRTASNKEIKLSEHNIKKSKMFFKDIEEQYPT (domain or fragment) [Recombinant GST-BRC fusion protein (containing BRCA2-1005-1040, fused with GST at its N-terminal)]",binding result,binds
